The values that follow come from patent US20060286609A1 (BIOCHECK, published 2006).

A value given as a limit tells only on which side of the number the result lay.

Assay [1] concerns the target Human Id1: Histidine (human) (UniProt P41134). Briefly: sandwich ELISA, 5-3-coated wells, human Id1:His 2.5 ng/ml, detected with rabbit polyclonal B-5133-HRP. (In general: In an ELISA, binding on a coated surface is turned into a signal by an enzyme label.)
For assay [2] the target is unchanged. Briefly: sandwich ELISA, 5-3-coated wells, human Id1:His 0.5 ng/ml, detected with rabbit polyclonal B-5133-HRP.
Assay [3] has as its target T1, Mouse Id1: Histidine (mouse, UniProt P20067-2 1-148).
T1 construct: E. coli fusion protein (vector pGW07); also called m-Id1-His; not shown: His-tag
T1 sequence: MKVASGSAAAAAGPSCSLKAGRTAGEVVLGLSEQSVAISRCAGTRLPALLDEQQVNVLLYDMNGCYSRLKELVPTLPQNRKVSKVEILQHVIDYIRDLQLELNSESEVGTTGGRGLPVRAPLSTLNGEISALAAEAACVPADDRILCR
Briefly: ELISA, coated antigen; relative to human Id1.

The target in assay [4] is T2, Human Id3: Histidine (human, UniProt Q02535 1-119, limits assumed).
T2 construct: E. coli fusion protein (vector pGW07); also called h-Id3: His; not shown: His-tag
T2 sequence (looked up): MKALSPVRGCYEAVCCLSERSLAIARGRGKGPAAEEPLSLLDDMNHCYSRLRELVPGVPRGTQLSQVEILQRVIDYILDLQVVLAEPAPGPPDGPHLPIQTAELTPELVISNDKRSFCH
Briefly: ELISA, coated antigen; relative to human Id1.

For assay [5], the target named is Human Id1: Histidine (human) (UniProt P41134). Kind of assay: sandwich ELISA, 5-3-coated wells, human Id1:His 10.0 ng/ml, detected with rabbit polyclonal B-5133-HRP.
Assay [6] deals with T3, glutathione S-transferase (GST) (UniProt P08515 1-218 = GST).
T3 construct: Coated on wells as control for the fusion partner of the immunogen
Briefly: ELISA, coated antigen, Ab 5.00 ug/ml. The method, then: (§1) Incubate plates at 2-8° C. overnight (16-24 hours). [0145] 11. Shake off the BSA solution. [0146] 12. Dispense 250 μL of 2.5% sucrose solution into each well. [0147] 13. Incubate plates at 2-8° C. for 4 hours. [0148] 14. Shake off sucrose solution. [0149] 15. Dry in vacuum at room temperature overnight. Screening Method [0150] 1. Dispense 100 μL of antibody diluent, diluted rabbit polyclonal anti-Id1 into appropriate wells. […] 2. Incubate at room temperature with mechanical shaking at 750 rpm for 90 minutes. [0152] 3. Remove the incubation mixture by flicking plate content into an appropriate waste container, followed by rinsing the wells 5 times with distilled water. […] 4. Strike the wells sharply onto absorbent paper or paper towels to remove all residual water droplets. [0154] 5. Dispense 100 μL of Goat Anti-Rabbit IgG-HRP Conjugate Reagent into each well. Gently mix for 5 seconds. [0155] 6. Incubate at room temperature with mechanical shaking at 750 rpm for 90 minutes. […] 7. Repeat procedures 3 and 4. [0157] 8. Dispense 100 μL of TMB Reagent into each well. Gently mix for 5 seconds. [0158] 9. Incubate at room temperature with mechanical shaking at 750 rpm for 20 minutes. [0159] 10. Add 100 μL of Stop Solution (1N HCl) into each well. [0160] 11. Gently mix for 10 seconds to ensure a complete mixing. […] 12. Read optical density (absorbance) at 450 nm. Results from this assay were used to select the rabbit sera with the highest antibodies titer that selectively reacts with mouse Id1 or human Id1 or both.
(§2) A comparison was carried out between the reactivity of the rabbit monoclonal anti-mouse Id1, clone #BCH-1/#37-2, of this invention and the mouse monoclonal anti-mouse/human Id1 from BD Pharmingen with the following antigens prepared in Example 5: mouse Id1:His, human Id1:His, human Id2:His, human Id3:His, and GST. These antigens and protein were used to coat the wells.
(§3) Materials and methods were those described in Example 9 except (a) Pharmingen's mouse monoclonal anti-mouse Id1 was used in addition to the rabbit monoclonal anti-mouse Id1 (Example 10), and (b) goat anti-mouse IgG-HRP conjugate was used to process the wells treated with the Pharmingen monoclonal antibody and polyclonal goat anti-rabbit IgG-HRP conjugate was used to process wells treated with rabbit monoclonal anti-mouse Id1.

Assay [7] concerns the target T4, Human Id2: Histidine (human, UniProt Q02363 1-134, limits assumed).
T4 construct: E. coli fusion protein (vector pGW07); also called h-Id2: His; not shown: His-tag
T4 sequence (looked up): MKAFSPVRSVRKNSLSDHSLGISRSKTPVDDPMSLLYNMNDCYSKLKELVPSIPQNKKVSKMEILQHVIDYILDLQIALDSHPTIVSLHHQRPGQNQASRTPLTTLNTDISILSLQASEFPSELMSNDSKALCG
Kind of assay: ELISA, coated antigen, Ab 5.00 ug/ml. The method, then: as §1, §2, §3

Assay [8] concerns the target T1, Mouse Id1: Histidine. Briefly: ELISA, coated antigen, Ab 5.00 ug/ml. Here is the method: as §1, §2, §3
For assay [9], the target named is T2, Human Id3: Histidine. Kind of assay: ELISA, coated antigen, Ab 5.00 ug/ml. Here is the method: as §1, §2, §3
For assay [10], the target named is Human Id1: Histidine (human) (UniProt P41134). Briefly: ELISA, coated antigen, Ab 0.25 ug/ml.
For assay [11] the target is unchanged. Briefly: ELISA, coated antigen, Ab 0 ug/ml (blank).
In assay [12] the target is T3, glutathione S-transferase (GST). Briefly: ELISA, coated antigen, Ab 0.25 ug/ml. The method, then: as §1, §2, §3
Assay [13] concerns the target T4, Human Id2: Histidine. Briefly: ELISA, coated antigen, Ab 0.25 ug/ml. Here is the method: as §1, §2, §3
In assay [14] the target is T1, Mouse Id1: Histidine. Kind of assay: ELISA, coated antigen, Ab 0.25 ug/ml. Here is the method: as §1, §2, §3
Assay [15] concerns the target T2, Human Id3: Histidine. Briefly: ELISA, coated antigen, Ab 0.25 ug/ml. Here is the method:
as §1, §2, §3

Assay [16] has as its target Human Id1: Histidine (human) (UniProt P41134). Briefly: ELISA, coated antigen, Ab 1.00 ug/ml.

Sequence of Human Id1: Histidine (human) (P41134 whole entry): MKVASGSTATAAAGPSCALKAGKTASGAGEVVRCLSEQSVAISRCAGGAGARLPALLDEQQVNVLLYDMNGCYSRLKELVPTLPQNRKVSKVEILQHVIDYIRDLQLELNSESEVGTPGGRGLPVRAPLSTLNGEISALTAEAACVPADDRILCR
T3 sequence (P08515 whole entry, the tested form may be a part): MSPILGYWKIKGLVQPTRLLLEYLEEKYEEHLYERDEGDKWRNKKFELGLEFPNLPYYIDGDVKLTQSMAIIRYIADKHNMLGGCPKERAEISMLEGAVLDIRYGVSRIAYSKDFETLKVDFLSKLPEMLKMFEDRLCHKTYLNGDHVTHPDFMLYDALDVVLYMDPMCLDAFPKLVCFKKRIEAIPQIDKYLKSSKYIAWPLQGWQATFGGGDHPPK

Consider “rabbit monoclonal anti-human Id1, clone #BCH-2/#5-3 (antibody)”, for which the A450 in assay [1] was 0.244 A450; in [2] it was 0.085 A450; in [5], 0.815 A450. Moreover, the Cross-reactivity (%) with Mouse Id1: Histidine [3] and in the assay with Human Id3: Histidine [4] was less than 1% throughout.

B1: rabbit monoclonal anti-mouse Id1, clone #BCH-1/#37-2 (antibody, V domains shown)
VH: QSVEESGGRLVTPGTPLTLTCKVSGFDINSYAMDWFRQAPGKGLEWIGMMSTRGNTYYTSWAKGRFTISKTSSTTVDLKMTSLTTEDTATYFCARGGLWGPGTLVTVSS
VL: RVLTQTASPVSAAVGGTVTINCQASQSVYNGNRLGWYQLKPGQSPKELIHDASTLASGVPSRFRGSGSGTQFTLTINDVQCDDAATYYCVGSYACSTGDCNVFGGGTEVVVK
notes: Rabbit IgG from hybridoma, Protein G purified; also called m Id1 MoAb 37-2; Rabbit Monoclonal Anti-Mouse Id1 (#37-2)
Regarding B1, the A450 turned out to be 0.086 A450 in [6]; 0.083 A450 with Human Id2: Histidine [7]; 3.26 A450 in the assay with Mouse Id1: Histidine [8]; 0.091 A450 with Human Id3: Histidine [9]; 0.07 A450 in assay [10]; 0.047 A450 in assay [11]. The A450 in assay [12] turned out to be 0.051 A450; with Human Id2: Histidine [13], 0.049 A450; with Mouse Id1: Histidine [14], 2 A450; in the assay with Human Id3: Histidine [15] it was 0.047 A450; in assay [16], 0.113 A450.
